“Also recorded” adds a separate entry of the source.
T1: NRP2/FLT4(VEGFR3) (Homo sapiens, UniProt O60462)
T1 construct: The complete extracellular domain and transmembrane helices of NRP2a (version 2), NRP2b (version 5); expressed in transfected cells; host or cells: Expi293, transient co-transfection
T1 sequence (O60462 23-859 isoform O60462-3 limits assumed): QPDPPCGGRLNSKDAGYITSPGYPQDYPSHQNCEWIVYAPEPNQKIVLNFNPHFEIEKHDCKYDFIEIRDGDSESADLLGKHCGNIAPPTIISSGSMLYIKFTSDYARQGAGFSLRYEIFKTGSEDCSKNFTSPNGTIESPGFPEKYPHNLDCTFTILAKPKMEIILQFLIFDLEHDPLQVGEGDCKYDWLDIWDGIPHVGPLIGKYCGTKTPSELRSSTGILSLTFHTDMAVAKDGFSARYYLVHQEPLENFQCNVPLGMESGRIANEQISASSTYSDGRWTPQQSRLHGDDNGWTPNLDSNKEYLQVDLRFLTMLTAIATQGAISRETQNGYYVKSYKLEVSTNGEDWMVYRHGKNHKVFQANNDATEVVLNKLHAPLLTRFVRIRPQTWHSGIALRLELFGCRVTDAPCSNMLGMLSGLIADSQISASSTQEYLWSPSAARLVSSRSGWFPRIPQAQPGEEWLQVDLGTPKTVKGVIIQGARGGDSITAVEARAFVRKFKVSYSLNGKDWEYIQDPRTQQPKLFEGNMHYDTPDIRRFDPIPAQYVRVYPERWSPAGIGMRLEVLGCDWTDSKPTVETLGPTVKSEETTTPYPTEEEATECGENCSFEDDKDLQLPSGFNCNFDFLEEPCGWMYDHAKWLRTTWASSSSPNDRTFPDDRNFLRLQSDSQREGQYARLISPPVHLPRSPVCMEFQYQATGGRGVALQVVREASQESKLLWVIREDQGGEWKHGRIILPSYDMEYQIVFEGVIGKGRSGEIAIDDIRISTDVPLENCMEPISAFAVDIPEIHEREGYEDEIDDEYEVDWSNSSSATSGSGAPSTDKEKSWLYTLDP

B1: aNRP2-11v7: humanized, affinity matured anti-NRP2 antibody, target domain b2; VH SEQ ID NO: 51, VL SEQ ID NO: 52 (antibody, V domains shown)
VH: QVQLVQSGAEVKKPGASVKVSCKASGYTFTSFGISWVRQAPGQGLEWIGEIYPRSGNTYYNENFKGRATMTADKSTSTAYMELRSLRSDDTAVYYCARSSGYYGSTPFPYWGQGTLVTVSS
VL: DIQMTQSPSSLSASVGDRVTITCRASQDISNYLNWYQQKPGKAVKLLIYYTSRLHSGVPSRFSGSGSGTDYTFTISSLQPEDIATYYCQQGNTLPWTFGGGTKVEIK
modifications: Variable heavy chain region; Light chain variable region
B2: aNRP2-10v10: humanized, affinity matured anti-NRP2 antibody, target domain b1, VEGF-C blocking; VH SEQ ID NO: 49, VL SEQ ID NO: 50 (antibody, V domains shown)
VH: EVQLVQSGAEVKKPGATVKISCKVSGFNIKDYYVHWVQQAPGKGLEWMGRIDVEDDETKYAPKFQGRVTITADTSTDTAYMELSSLRSEDTAVYYCATPIYGAREAWFAYWGQGTLVTVSS
VL: DIQMTQSPSSLSASVGDRVTITCTASSSVSSSYLHWYQQKPGKAPKLLIYRTSNLASGVPSRFSGSGSGTDFTLTISSLQPEDFATYYCHQYYRSPPTFGGGTKVEIK
modifications: Variable heavy chain region; Light chain variable region

Assays:
NRP2/PLXNA1 = test: Split-luciferase receptor dimerization assay, NRP2/PLXNA1 with SEMA3F; type: cell-based, human; conditions: antibody 100 nM; ligand induced dimerization
Protocol: (§1) To further extend the assessment of the biological activity of the anti-NRP2 antibodies, their activity was assessed in a receptor dimerization assay. In brief, vectors encoding a split luciferase pBiT1.1 and pBiT2.1 were obtained from Promega corporation (Madison, Wisconsin). The complete extracellular domain and transmembrane helices of NRP2a (version 2), NRP2b (version 5) (See table N1), FLT4 (VEGFR3), KDR (VEGFR2), and plexin A1 (PLXNA1) were cloned into the vectors and screened for optimal orientation, receptor density, and ligand induced dimerization, following established methods. Expi293 cells (Fisher) were transfected at 1 million cells/mL ˜20 hours prior to the assay with NRP2 and a co-receptor at equal mass amounts. Cells were counted, and 100,000 live cells were plated in a well of a white luminometer plate in Live Cell Imaging Solution (Fisher). Nano-Glo assay substrate (Promega) was added, and the plate was read on a Glomax 96 luminometer at room temperature to establish baseline luminescence. Antibodies were added to the well at 100 nM and the plate was again read to establish a new baseline and monitor the effects of the antibodies on spontaneous receptor dimerization. Depending on the receptor pair, typically 200 nM SEMA3F-p95 (aTyr Pharma), 2 nM VEGF-C(R&D Systems, Minnesota), or 2 nM VEGF165 (R&D Systems, Minnesota) were then added and the plate was again read to measure dimerization of receptors. Normalized responses for each individual well were calculated to the time point prior to addition of ligand, then normalized to no-antibody/no-ligand (baseline signal). Replicates were then processed to give average response and standard deviation. Results are summarized in Table E3 below, and shown graphically in FIGS. 3-10.

NRP2/FLT4(VEGFR3) = target: T1, NRP2/FLT4(VEGFR3); test: Split-luciferase receptor dimerization assay, NRP2/FLT4 with VEGF-C; type: cell-based; conditions: antibody 100 nM; ligand induced dimerization
Protocol: as §1

[1] = tested on: human lymphatic endothelial cell (HLEC); test: HLEC migration toward VEGF-C (modified Boyden chamber, xCELLigence); type: cell-based; conditions: 191.5 pM VEGF-C, 24 hour period
Protocol: Migration assays were performed using a modified Boyden Chamber with […] pore size membrane, 16-well CIM plate (ACEA Biosciences.) Both sides of the membrane were coated with 5 μg/ml Fibronectin (Sigma) for 30 minutes at 37° C., 5% CO2. 160 μl of 191.5 pM VEGF-C or assay medium (0.1% BSA, ECM) was added to the lower chamber, the upper well attached, 50 ul assay medium added to the upper chamber before replacing the lid, and the plate was incubated for 1 hour at 37° C., 5% CO2 before baseline measurement was taken. HLECs were harvested, washed, and re-suspended in assay medium at 100,000 cells/well with aNRP2 antibody or control proteins and incubated for 30 minutes at 37° C., 5% CO2. Cells were added to the plate and incubated at room temperature for 30 minutes. Plate was inserted into xCELLigence RTCA DP (ACEA Biosciences) instrument, and migration was measured real-time every 5 minutes over a 24 hour period (2 wells per condition).

BT549 = test: 3D soft agar colony formation assay, BT549; type: cell-based, human
Protocol: Anchorage-independent growth is the ability of transformed cells to grow independently of a solid surface, and is a hallmark of carcinogenesis. The soft agar colony formation assay is a well-established method for characterizing this capability in vitro (J Vis Exp. 2014; (92): 51998). Human triple negative breast cancer (TNBC) cell lines MDA-MB-231 (HTB-26™) and BT549 (HTB122™) were obtained from ATCC and employed in this assay.
MDA-MB-231 was cultured in 1×RPMI media containing 10% FBS and 1% P/S. BT549 was cultured in 1×RPMI media containing 10% FBS, 0.023 U/mL insulin and 1% P/S. Cells were recovered and expanded from frozen stocks for 2-3 passages. The NRP2-high population was sorted out on FACS equipment following cell surface staining by a fluorophore-conjugated anti-NRP2 antibody. […] The chemo drug Cisplatin or 5-FU was added at a final concentration of IC30 or 1/2 IC30, based on a preliminary test that determined their inhibition curves on MDA-MB-231 cells, in combination with the antibodies a-NRP2-10v10 or its isotype control hIgG4 at 100 nM. […] After 6 or 9 days of treatment, the soft agar matrix was dissolved and the formed cell colonies were quantified using CyQuant dye diluted in PBS (provided in the Cell Biolab kit), which produced a fluorescence signal proportional to viable cells.

| Molecule | effect on NRP2-plexin heterodimerization (in words) (NRP2/PLXNA1) | effect on NRP2-VEGFR3 (FLT4) heterodimerization (in words) (NRP2/FLT4(VEGFR3)) | migration of HLEC cells towards VEGF-C [1] | colony formation, soft agar, antibody treatment alone (BT549) (BT549; aNRP2-10v10 treatment alone) | colony formation by BT549 cells, soft agar (BT549; antibody 100 nM in combination with Cisplatin or 5-FU at certain doses, compared to hIgG4 control) |
| --- | --- | --- | --- | --- | --- |
| B1 | increased the ligand induced dimerization signal | ability to inhibit | inhibited by both NRP2 antibodies to levels consistent with positive control antibodies; also recorded: effective block the migration of HLEC cells towards VEGF-C in a dose dependent manner |  |  |
| B2 | without significantly inhibiting | potently inhibit | inhibited by both NRP2 antibodies to levels consistent with positive control antibodies; also recorded: effective block the migration of HLEC cells towards VEGF-C in a dose dependent manner | no obvious effect | significantly more pronounced |
